Measured values from patent US20190077860A1 (EISAI R AND D MANAGEMENT, published 2019).

T1: human EphA10 extracellular region-SEAP-His protein (human, UniProt Q5JZY3 34-565)
T1 construct: extracellular domain; also called hEphA10-SEAP-His
T1 sequence (looked up): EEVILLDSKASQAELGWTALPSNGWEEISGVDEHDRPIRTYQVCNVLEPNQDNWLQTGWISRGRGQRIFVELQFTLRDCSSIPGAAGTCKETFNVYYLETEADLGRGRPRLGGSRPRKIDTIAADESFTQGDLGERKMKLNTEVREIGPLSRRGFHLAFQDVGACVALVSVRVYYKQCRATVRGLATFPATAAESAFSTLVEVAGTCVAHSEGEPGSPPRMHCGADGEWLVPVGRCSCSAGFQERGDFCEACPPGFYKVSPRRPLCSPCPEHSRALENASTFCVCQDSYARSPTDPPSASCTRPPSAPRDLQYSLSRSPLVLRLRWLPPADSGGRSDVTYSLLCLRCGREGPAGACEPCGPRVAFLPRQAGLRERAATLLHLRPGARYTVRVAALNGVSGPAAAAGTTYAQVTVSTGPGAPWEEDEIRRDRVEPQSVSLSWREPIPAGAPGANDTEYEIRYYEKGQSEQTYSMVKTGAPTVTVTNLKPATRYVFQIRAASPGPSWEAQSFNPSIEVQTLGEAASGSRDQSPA

T2: human EphB6 extracellular region-SEAP-His protein (human, UniProt O15197 32-594)
T2 construct: extracellular domain; also called hEphB6-SEAP-His
T2 sequence (looked up): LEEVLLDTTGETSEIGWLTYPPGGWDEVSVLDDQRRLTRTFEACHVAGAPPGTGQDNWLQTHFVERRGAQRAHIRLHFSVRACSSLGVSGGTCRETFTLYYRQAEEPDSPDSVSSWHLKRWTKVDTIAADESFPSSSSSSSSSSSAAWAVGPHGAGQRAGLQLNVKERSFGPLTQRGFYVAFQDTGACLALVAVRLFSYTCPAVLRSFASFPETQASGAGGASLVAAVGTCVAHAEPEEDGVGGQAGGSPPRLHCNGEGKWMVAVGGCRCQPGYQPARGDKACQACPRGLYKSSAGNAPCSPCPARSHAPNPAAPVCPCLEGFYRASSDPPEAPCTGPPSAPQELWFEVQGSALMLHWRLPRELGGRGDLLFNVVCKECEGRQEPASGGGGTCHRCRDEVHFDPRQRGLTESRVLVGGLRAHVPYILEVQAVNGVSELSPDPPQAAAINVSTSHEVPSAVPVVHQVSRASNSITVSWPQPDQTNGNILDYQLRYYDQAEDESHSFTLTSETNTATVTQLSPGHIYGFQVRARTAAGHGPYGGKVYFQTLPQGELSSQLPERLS

T3: human EphB2 extracellular region-SEAP-His protein (human, UniProt P29323 19-543)
T3 construct: extracellular domain; also called hEphB2-SEAP-His
T3 sequence (looked up): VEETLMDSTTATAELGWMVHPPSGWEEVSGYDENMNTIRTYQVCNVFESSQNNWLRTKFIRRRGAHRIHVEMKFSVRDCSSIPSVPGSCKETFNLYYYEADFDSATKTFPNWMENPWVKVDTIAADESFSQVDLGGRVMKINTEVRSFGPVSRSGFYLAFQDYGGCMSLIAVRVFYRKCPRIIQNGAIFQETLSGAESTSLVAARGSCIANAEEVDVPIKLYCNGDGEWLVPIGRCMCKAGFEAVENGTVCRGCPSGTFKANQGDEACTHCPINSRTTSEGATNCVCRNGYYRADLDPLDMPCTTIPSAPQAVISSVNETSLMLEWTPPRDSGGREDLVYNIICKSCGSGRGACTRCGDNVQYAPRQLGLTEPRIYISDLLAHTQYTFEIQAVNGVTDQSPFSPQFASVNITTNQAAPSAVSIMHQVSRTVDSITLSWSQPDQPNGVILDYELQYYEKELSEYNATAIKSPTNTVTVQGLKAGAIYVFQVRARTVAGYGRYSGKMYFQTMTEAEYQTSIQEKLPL

T4: human EphA6 extracellular region-SEAP-His protein (human, UniProt Q9UF33 23-550)
T4 construct: extracellular domain; also called hEphA6-SEAP-His
T4 sequence (looked up): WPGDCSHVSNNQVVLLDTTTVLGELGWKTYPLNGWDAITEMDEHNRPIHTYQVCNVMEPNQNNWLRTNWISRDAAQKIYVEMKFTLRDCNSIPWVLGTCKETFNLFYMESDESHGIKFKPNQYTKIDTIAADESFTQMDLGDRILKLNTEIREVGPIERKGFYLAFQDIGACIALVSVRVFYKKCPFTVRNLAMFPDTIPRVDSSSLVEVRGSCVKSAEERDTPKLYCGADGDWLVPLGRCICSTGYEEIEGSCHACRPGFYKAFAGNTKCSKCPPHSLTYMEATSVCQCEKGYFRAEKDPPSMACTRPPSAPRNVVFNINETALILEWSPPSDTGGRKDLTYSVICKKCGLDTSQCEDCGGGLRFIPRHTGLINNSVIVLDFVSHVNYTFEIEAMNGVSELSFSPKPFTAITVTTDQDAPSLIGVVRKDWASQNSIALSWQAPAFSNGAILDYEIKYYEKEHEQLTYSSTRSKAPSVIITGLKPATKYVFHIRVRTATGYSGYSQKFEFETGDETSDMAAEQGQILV

B1: humanized antibody No. 86 (antibody, human IgG1, kappa)
heavy: QIQLVQSGSELKKPGASVKVSCKASGYTFTDYSMHWVRQAPGQGLKWMGWINTETGEPTYADDFKGRFVFSLDTSVSTAYLQISSLKAEDTAVYYCARIPLYYYGSRYWYFDVWGQGTTVTVSSASTKGPSVFPLAPSSKSTSGGTAALGCLVKDYFPEPVTVSWNSGALTSGVHTFPAVLQSSGLYSLSSVVTVPSSSLGTQTYICNVNHKPSNTKVDKRVEPKSCDKTHTCPPCPAPPAAAPSVFLFPPKPKDTLMISRTPEVTCVVVDVSHEDPEVQFNWYVDGVEVHNAKTKPREEQFNSTFRVVSVLTVVHQDWLNGKEYKCKVSNKGLPAPIEKTISKTKGQPREPQVYTLPPSREEMTKNQVSLTCLVKGFYPSDIAVEWESNGQPENNYKTTPPMLDSDGSFFLYSKLTVDKSRWQQGNVFSCSVMHEALHNHYTQKSLSLSPG
light: DIQMTQSPSSLSASVGDRVTITCRASENIYRNLAWYQQKPGKAPKLLLYAATNLADGVPSRFSGSGSGTDYTLTISSLQSEDFATYYCQHFWGTPWTFGQGTKVEIKRTVAAPSVFIFPPSDEQLKSGTASVVCLLNNFYPREAKVQWKVDNALQSGNSQESVTEQDSKDSTYSLSSTLTLSKADYEKHKVYACEVTHQGLSSPVTKSFNRGEC
notes: human Ig kappa; also called L1-5/HK4
B2: humanized antibody No. 89 (antibody, human IgG1, kappa)
heavy: QIQLVQSGSELKKPGASVKVSCKASGYTFTDYSMHWVRQAPGQGLKWMGWINTETGEPTYAQGFTGRFVFSLDTSVSTAYLQISSLKAEDTAVYYCARIPLYYYGSRYWYFDVWGQGTTVTVSSASTKGPSVFPLAPSSKSTSGGTAALGCLVKDYFPEPVTVSWNSGALTSGVHTFPAVLQSSGLYSLSSVVTVPSSSLGTQTYICNVNHKPSNTKVDKRVEPKSCDKTHTCPPCPAPPAAAPSVFLFPPKPKDTLMISRTPEVTCVVVDVSHEDPEVQFNWYVDGVEVHNAKTKPREEQFNSTFRVVSVLTVVHQDWLNGKEYKCKVSNKGLPAPIEKTISKTKGQPREPQVYTLPPSREEMTKNQVSLTCLVKGFYPSDIAVEWESNGQPENNYKTTPPMLDSDGSFFLYSKLTVDKSRWQQGNVFSCSVMHEALHNHYTQKSLSLSPG
light: DIQMTQSPSSLSASVGDRVTITCRASENIYRNLAWYQQKPGKAPQLLLYAATNLADGVPSRFSGSGSGTDYTLTISSLQPEDFATYYCQHFWGTPWTFGQGTKVEIKRTVAAPSVFIFPPSDEQLKSGTASVVCLLNNFYPREAKVQWKVDNALQSGNSQESVTEQDSKDSTYSLSSTLTLSKADYEKHKVYACEVTHQGLSSPVTKSFNRGEC
notes: human Ig kappa; also called L1-6/HA4
B3: humanized antibody No. 87 (antibody, human IgG1, kappa)
heavy: QVQLVQSGSELKKPGASVKVSCKASGYTFTDYSMHWVRQAPGQGLEWMGWINTETGEPTYAQGFTGRFVFSLDTSVSTAYLQISSLKAEDTAVYYCARIPLYYYGSRYWYFDVWGQGTTVTVSSASTKGPSVFPLAPSSKSTSGGTAALGCLVKDYFPEPVTVSWNSGALTSGVHTFPAVLQSSGLYSLSSVVTVPSSSLGTQTYICNVNHKPSNTKVDKRVEPKSCDKTHTCPPCPAPPAAAPSVFLFPPKPKDTLMISRTPEVTCVVVDVSHEDPEVQFNWYVDGVEVHNAKTKPREEQFNSTFRVVSVLTVVHQDWLNGKEYKCKVSNKGLPAPIEKTISKTKGQPREPQVYTLPPSREEMTKNQVSLTCLVKGFYPSDIAVEWESNGQPENNYKTTPPMLDSDGSFFLYSKLTVDKSRWQQGNVFSCSVMHEALHNHYTQKSLSLSPG
light: DIQMTQSPSSLSASVGDRVTITCRASENIYRNLAWYQQKPGKAPQLLLYAATNLADGVPSRFSGSGSGTDYTLTISSLQPEDFATYYCQHFWGTPWTFGQGTKVEIKRTVAAPSVFIFPPSDEQLKSGTASVVCLLNNFYPREAKVQWKVDNALQSGNSQESVTEQDSKDSTYSLSSTLTLSKADYEKHKVYACEVTHQGLSSPVTKSFNRGEC
notes: human Ig kappa; also called L1-6/HA1
B4: humanized antibody No. 88 (antibody, human IgG1, kappa)
heavy: QVQLVQSGSELKKPGASVKVSCKASGYTFTDYSMHWVRQAPGQGLKWMGWINTETGEPTYAQGFTGRFVFSLDTSVSTAYLQISSLKAEDTAVYYCARIPLYYYGSRYWYFDVWGQGTTVTVSSASTKGPSVFPLAPSSKSTSGGTAALGCLVKDYFPEPVTVSWNSGALTSGVHTFPAVLQSSGLYSLSSVVTVPSSSLGTQTYICNVNHKPSNTKVDKRVEPKSCDKTHTCPPCPAPPAAAPSVFLFPPKPKDTLMISRTPEVTCVVVDVSHEDPEVQFNWYVDGVEVHNAKTKPREEQFNSTFRVVSVLTVVHQDWLNGKEYKCKVSNKGLPAPIEKTISKTKGQPREPQVYTLPPSREEMTKNQVSLTCLVKGFYPSDIAVEWESNGQPENNYKTTPPMLDSDGSFFLYSKLTVDKSRWQQGNVFSCSVMHEALHNHYTQKSLSLSPG
light: DIQMTQSPSSLSASVGDRVTITCRASENIYRNLAWYQQKPGKAPQLLLYAATNLADGVPSRFSGSGSGTDYTLTISSLQPEDFATYYCQHFWGTPWTFGQGTKVEIKRTVAAPSVFIFPPSDEQLKSGTASVVCLLNNFYPREAKVQWKVDNALQSGNSQESVTEQDSKDSTYSLSSTLTLSKADYEKHKVYACEVTHQGLSSPVTKSFNRGEC
notes: human Ig kappa; also called L1-6/HA2

What was measured:
Experiment in all cases: ELISA
[1] = target: T1, human EphA10 extracellular …
[2] = target: T2, human EphB6 extracellular …
[3] = target: T3, human EphB2 extracellular …
[4] = target: T4, human EphA6 extracellular …
[5] = target: T5, human EphA2 extracellular region-SEAP-His protein (human, UniProt P29317 24-537)
T5 construct: extracellular domain; also called hEphA2-SEAP-His

SEAP-His = SEAP-His (UniProt P05187 23-511)
Sequence of SEAP-His (P05187 23-511): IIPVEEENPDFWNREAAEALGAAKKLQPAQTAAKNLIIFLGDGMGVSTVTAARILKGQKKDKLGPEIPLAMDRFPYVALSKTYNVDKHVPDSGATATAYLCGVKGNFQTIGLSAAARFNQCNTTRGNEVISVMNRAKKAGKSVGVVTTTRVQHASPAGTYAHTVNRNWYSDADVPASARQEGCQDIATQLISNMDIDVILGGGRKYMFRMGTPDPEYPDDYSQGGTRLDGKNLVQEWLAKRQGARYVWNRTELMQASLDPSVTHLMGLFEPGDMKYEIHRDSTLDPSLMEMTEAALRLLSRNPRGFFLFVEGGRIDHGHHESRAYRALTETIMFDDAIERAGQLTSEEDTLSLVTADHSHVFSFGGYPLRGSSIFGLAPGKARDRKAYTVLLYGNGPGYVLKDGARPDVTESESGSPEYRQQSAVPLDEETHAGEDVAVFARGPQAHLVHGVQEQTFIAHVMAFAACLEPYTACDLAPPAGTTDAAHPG

T5 sequence (P29317 24-537): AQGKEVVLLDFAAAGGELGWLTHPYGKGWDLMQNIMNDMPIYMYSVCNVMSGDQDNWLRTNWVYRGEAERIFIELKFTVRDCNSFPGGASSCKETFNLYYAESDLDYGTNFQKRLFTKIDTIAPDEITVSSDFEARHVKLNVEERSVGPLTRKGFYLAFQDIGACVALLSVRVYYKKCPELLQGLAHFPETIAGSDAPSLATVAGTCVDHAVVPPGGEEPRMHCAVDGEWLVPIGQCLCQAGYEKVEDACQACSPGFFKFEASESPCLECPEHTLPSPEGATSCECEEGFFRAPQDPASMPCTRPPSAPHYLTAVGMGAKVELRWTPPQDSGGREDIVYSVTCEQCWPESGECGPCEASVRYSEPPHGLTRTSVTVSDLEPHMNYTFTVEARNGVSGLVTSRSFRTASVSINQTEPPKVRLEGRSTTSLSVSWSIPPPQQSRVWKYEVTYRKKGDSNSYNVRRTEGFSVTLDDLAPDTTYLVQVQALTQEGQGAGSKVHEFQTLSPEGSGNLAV

Binder | A450 as % of hEphA4-SEAP-His [1] [%] | A450 as % of hEphA4-SEAP-His [2] [%] | A450 as % of hEphA4-SEAP-His [3] [%] | A450 as % of hEphA4-SEAP-His [4] [%] | A450 as % of hEphA4-SEAP-His [5] [%] | A450 as % of hEphA4-SEAP-His (SEAP-His) [%]
B1 | 5.6 | 5.7 | 5.7 | 8.6 | 5.7 | 6.1
B2 | 5.7 | 4.8 | 5.7 | 8.4 | 5.6 | 5.8
B3 | 5.2 | 5.3 | 5.4 | 6.4 | 5.4 | 5.5
B4 | 5.8 | 6.1 | 6 | 7.5 | 5.8 | 6.1
